Test results: the supplement of paper PMC7125110
± gives the standard error. Fewer inactive variants are shown than the library holds.

B1: glmS ribozyme (parent)
chain: AUAAAAGCGCCAGAACUACAGAAAUGUAGUUGACGAGGAGGAGGUUUAUCGAAUUUUCGGCGGAUGCCUCCAAA

Tests used:
Settings in all cases: with glucosamine-6-phosphate
glucosamine-6-phosphate [1] = variants of: B1; test: self-cleavage kobs at 40 uM GlcN6P; higher = faster cleavage; RNA array
Method in brief: (§1)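 Weighted Michaelis–Menten fits across concentrations supplied kcat and KM, based on kobs from one- or two-exponential decay fits to normalised per-tile medians. The data came from barcoded ribozyme variants transcribed in situ by E. coli RNA polymerase on sequenced MiSeq chips and tracked at 37 °C by a hybridised Cy3 probe. Glucosamine-6-phosphate (40 μM to 10 mM) in HEPES/KCl/Mg(OAc)2 buffer was flowed in.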

glucosamine-6-phosphate [2] = variants of: B1; test: self-cleavage kobs at 160 uM GlcN6P; higher = faster cleavage; RNA array
Method in brief: as §1

glucosamine-6-phosphate [3] = variants of: B1; test: self-cleavage kobs at 640 uM GlcN6P; higher = faster cleavage; RNA array
Method in brief: as §1

glucosamine-6-phosphate [4] = variants of: B1; test: self-cleavage kobs at 2500 uM GlcN6P; higher = faster cleavage; RNA array
Method in brief: as §1

glucosamine-6-phosphate [5] = variants of: B1; test: self-cleavage kobs at 10000 uM GlcN6P; higher = faster cleavage; RNA array
Method in brief: as §1

Variant | self-cleavage kobs at 40 uM GlcN6P (glucosamine-6-phosphate [1]) | self-cleavage kobs at 160 uM GlcN6P (glucosamine-6-phosphate [2]) | self-cleavage kobs at 640 uM GlcN6P (glucosamine-6-phosphate [3]) | self-cleavage kobs at 2500 uM GlcN6P (glucosamine-6-phosphate [4]) | self-cleavage kobs at 10000 uM GlcN6P (glucosamine-6-phosphate [5])
U45C U54G | 3.96e-05 ± 1.3e-05 s⁻¹ | 0.000199 ± 3.9e-05 s⁻¹ | 0.00067 ± 0.00015 s⁻¹ | 0.000454 ± 0.00018 s⁻¹ | 0.00305 ± 0.00064 s⁻¹
G44A U56C | < 1e-05 s⁻¹ | < 1e-05 s⁻¹ | – | – | < 1e-05 s⁻¹
G43A G62C | < 1e-05 s⁻¹ | – | – | < 1e-05 s⁻¹ | < 1e-05 s⁻¹
G43A G62A | < 1e-05 s⁻¹ | < 1e-05 s⁻¹ | – | < 1e-05 s⁻¹ | < 1e-05 s⁻¹
A42U C58G | < 1e-05 s⁻¹ | < 1e-05 s⁻¹ | < 1e-05 s⁻¹ | < 1e-05 s⁻¹ | –
G43C C50A U65C C68U | < 1e-05 s⁻¹ | – | – | – | < 1e-05 s⁻¹
U47A C50U | < 1e-05 s⁻¹ | – | – | – | 5.52e-05 ± 1.2e-05 s⁻¹
U46C G59U | < 1e-05 s⁻¹ | < 1e-05 s⁻¹ | – | – | –
U46C G59A | < 1e-05 s⁻¹ | – | < 1e-05 s⁻¹ | – | 4.71e-05 ± 1.4e-05 s⁻¹
A42C A48C | < 1e-05 s⁻¹ | – | < 1e-05 s⁻¹ | < 1e-05 s⁻¹ | < 1e-05 s⁻¹
G43C G51U | < 1e-05 s⁻¹ | – | – | – | < 1e-05 s⁻¹
A42U U56C G60U | < 1e-05 s⁻¹ | – | – | – | –
A42G G44U | < 1e-05 s⁻¹ | < 1e-05 s⁻¹ | – | – | 3.58e-05 ± 1.2e-05 s⁻¹
G44C A64G C70U | < 1e-05 s⁻¹ | – | < 1e-05 s⁻¹ | < 1e-05 s⁻¹ | < 1e-05 s⁻¹
U45A G62U | < 1e-05 s⁻¹ | < 1e-05 s⁻¹ | < 1e-05 s⁻¹ | < 1e-05 s⁻¹ | –
G43U G62U | < 1e-05 s⁻¹ | – | – | < 1e-05 s⁻¹ | < 1e-05 s⁻¹
G41U G62C C70U | < 1e-05 s⁻¹ | – | < 1e-05 s⁻¹ | – | < 1e-05 s⁻¹
U47G U56A C58U A64G U69A C70A | 5.21e-05 ± 2.2e-05 s⁻¹ | – | – | – | 3.66e-05 ± 1.4e-05 s⁻¹
A42G C67A | 0.000813 ± 0.00013 s⁻¹ | 0.00197 ± 0.00067 s⁻¹ | 0.008 ± 0.0032 s⁻¹ | 0.00552 ± 0.0024 s⁻¹ | 0.0213 ± 0.0053 s⁻¹
A42G C67U | 0.000328 ± 4.2e-05 s⁻¹ | 0.00136 ± 0.00031 s⁻¹ | 0.00155 ± 0.00035 s⁻¹ | 0.00245 ± 0.00057 s⁻¹ | 0.00807 ± 0.0016 s⁻¹
A42U G62C | < 1e-05 s⁻¹ | – | < 1e-05 s⁻¹ | – | < 1e-05 s⁻¹

Variant | self-cleavage kobs at 40 uM GlcN6P (glucosamine-6-phosphate [1]) | self-cleavage kobs at 160 uM GlcN6P (glucosamine-6-phosphate [2]) | self-cleavage kobs at 640 uM GlcN6P (glucosamine-6-phosphate [3]) | self-cleavage kobs at 2500 uM GlcN6P (glucosamine-6-phosphate [4]) | self-cleavage kobs at 10000 uM GlcN6P (glucosamine-6-phosphate [5])
G43C C70G | < 1e-05 s⁻¹ | – | < 1e-05 s⁻¹ | < 1e-05 s⁻¹ | < 1e-05 s⁻¹
A42G G62U C68U | < 1e-05 s⁻¹ | – | – | – | –
U45G G60C | < 1e-05 s⁻¹ | – | < 1e-05 s⁻¹ | – | –
U45G C50A U65G | < 1e-05 s⁻¹ | – | < 1e-05 s⁻¹ | – | –
G43C A64G | < 1e-05 s⁻¹ | < 1e-05 s⁻¹ | < 1e-05 s⁻¹ | < 1e-05 s⁻¹ | < 1e-05 s⁻¹
G43C A64U | < 1e-05 s⁻¹ | < 1e-05 s⁻¹ | – | < 1e-05 s⁻¹ | < 1e-05 s⁻¹
G44A C70U | < 1e-05 s⁻¹ | < 1e-05 s⁻¹ | – | – | –
G44A C70G | < 1e-05 s⁻¹ | < 1e-05 s⁻¹ | < 1e-05 s⁻¹ | < 1e-05 s⁻¹ | < 1e-05 s⁻¹
G44U A53G C70A | < 1e-05 s⁻¹ | – | – | < 1e-05 s⁻¹ | < 1e-05 s⁻¹
U46G A53U C70G | 5.33e-05 ± 2.4e-05 s⁻¹ | – | – | 0.000254 ± 7.7e-05 s⁻¹ | 0.000165 ± 4e-05 s⁻¹
G41C U45A U57A C61G | < 1e-05 s⁻¹ | – | – | – | < 1e-05 s⁻¹
G44U C50U A53C | < 1e-05 s⁻¹ | – | < 1e-05 s⁻¹ | < 1e-05 s⁻¹ | –
G43U U54A | < 1e-05 s⁻¹ | – | – | – | 6.37e-05 ± 2e-05 s⁻¹
U47C C61U G63U | < 1e-05 s⁻¹ | – | – | – | –
U45C G59U | < 1e-05 s⁻¹ | < 1e-05 s⁻¹ | < 1e-05 s⁻¹ | – | < 1e-05 s⁻¹
A42U G44U | < 1e-05 s⁻¹ | < 1e-05 s⁻¹ | < 1e-05 s⁻¹ | < 1e-05 s⁻¹ | –
A42U G44A | < 1e-05 s⁻¹ | < 1e-05 s⁻¹ | < 1e-05 s⁻¹ | < 1e-05 s⁻¹ | –
G44U C58G | < 1e-05 s⁻¹ | < 1e-05 s⁻¹ | < 1e-05 s⁻¹ | < 1e-05 s⁻¹ | < 1e-05 s⁻¹
U47A C71U | 0.000701 ± 8.3e-05 s⁻¹ | 0.0018 ± 0.0003 s⁻¹ | 0.00323 ± 0.00057 s⁻¹ | 0.00535 ± 0.001 s⁻¹ | 0.0342 ± 0.0081 s⁻¹
U46A G60U | < 1e-05 s⁻¹ | < 1e-05 s⁻¹ | – | < 1e-05 s⁻¹ | –
G43C U47G | < 1e-05 s⁻¹ | – | < 1e-05 s⁻¹ | – | < 1e-05 s⁻¹
